Columns and labels:
human CD33 E121A = human CD33 E121A (human, UniProt P20138 18-364); test: flow cytometry on HEK293-T, alanine scan
human CD33 G156A = human CD33 G156A (human, UniProt P20138 18-364); test: flow cytometry on HEK293-T, alanine scan
human CD33 P145A = human CD33 P145A (human, UniProt P20138 18-364); test: flow cytometry on HEK293-T, alanine scan
human CD33 R109A = human CD33 R109A (human, UniProt P20138 18-364); test: flow cytometry on HEK293-T, alanine scan
human CD33 K146A = human CD33 K146A (human, UniProt P20138 18-364); test: flow cytometry on HEK293-T, alanine scan
human CD33 D95A = human CD33 D95A (human, UniProt P20138 18-364); test: flow cytometry on HEK293-T, alanine scan
human CD33 W167A = human CD33 W167A (human, UniProt P20138 18-364); test: flow cytometry on HEK293-T, alanine scan
human CD33 T152A = human CD33 T152A (human, UniProt P20138 18-364); test: flow cytometry on HEK293-T, alanine scan
human CD33 I147A = human CD33 I147A (human, UniProt P20138 18-364); test: flow cytometry on HEK293-T, alanine scan
human CD33 C101A = human CD33 C101A (human, UniProt P20138 18-364); test: flow cytometry on HEK293-T, alanine scan
human CD33 K159A = human CD33 K159A (human, UniProt P20138 18-364); test: flow cytometry on HEK293-T, alanine scan
human CD33 L141A = human CD33 L141A (human, UniProt P20138 18-364); test: flow cytometry on HEK293-T, alanine scan
human CD33 S158A = human CD33 S158A (human, UniProt P20138 18-364); test: flow cytometry on HEK293-T, alanine scan
human CD33 T139A = human CD33 T139A (human, UniProt P20138 18-364); test: flow cytometry on HEK293-T, alanine scan
human CD33 N100A = human CD33 N100A (human, UniProt P20138 18-364); test: flow cytometry on HEK293-T, alanine scan
human CD33 S164A = human CD33 S164A (human, UniProt P20138 18-364); test: flow cytometry on HEK293-T, alanine scan
human CD33 L148A = human CD33 L148A (human, UniProt P20138 18-364); test: flow cytometry on HEK293-T, alanine scan
human CD33 L93A = human CD33 L93A (human, UniProt P20138 18-364); test: flow cytometry on HEK293-T, alanine scan
human CD33 Y129A = human CD33 Y129A (human, UniProt P20138 18-364); test: flow cytometry on HEK293-T, alanine scan
human CD33 H137A = human CD33 H137A (human, UniProt P20138 18-364); test: flow cytometry on HEK293-T, alanine scan
human CD33 D112A = human CD33 D112A (human, UniProt P20138 18-364); test: flow cytometry on HEK293-T, alanine scan
human CD33 R122A = human CD33 R122A (human, UniProt P20138 18-364); test: flow cytometry on HEK293-T, alanine scan
human CD33 S131A = human CD33 S131A (human, UniProt P20138 18-364); test: flow cytometry on HEK293-T, alanine scan
human CD33 S115A = human CD33 S115A (human, UniProt P20138 18-364); test: flow cytometry on HEK293-T, alanine scan
human CD33 R144A = human CD33 R144A (human, UniProt P20138 18-364); test: flow cytometry on HEK293-T, alanine scan
human CD33 T162A = human CD33 T162A (human, UniProt P20138 18-364); test: flow cytometry on HEK293-T, alanine scan
human CD33 N160A = human CD33 N160A (human, UniProt P20138 18-364); test: flow cytometry on HEK293-T, alanine scan
human CD33 S135A = human CD33 S135A (human, UniProt P20138 18-364); test: flow cytometry on HEK293-T, alanine scan
human CD33 R110A = human CD33 R110A (human, UniProt P20138 18-364); test: flow cytometry on HEK293-T, alanine scan
human CD33 F118A = human CD33 F118A (human, UniProt P20138 18-364); test: flow cytometry on HEK293-T, alanine scan
human CD33 H157A = human CD33 H157A (human, UniProt P20138 18-364); test: flow cytometry on HEK293-T, alanine scan
human CD33 V165A = human CD33 V165A (human, UniProt P20138 18-364); test: flow cytometry on HEK293-T, alanine scan
human CD33 D107A = human CD33 D107A (human, UniProt P20138 18-364); test: flow cytometry on HEK293-T, alanine scan
[1] = molecular target: human CD33 extracellular region N20E (human, UniProt P20138 21-259); test: BLI Octet, IgG captured on AHC, CD33 analyte;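 note: CD33 variants and wild type run as analyte at 5, 50 and 500 nM, 700 s association then 1200 s dissociation, buffer-only reference subtracted, global 1:1 fit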
[2] = molecular target: human CD33 extracellular region W22S (human, UniProt P20138 18-259); test: BLI Octet, IgG captured on AHC, CD33 analyte;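 note: CD33 variants and wild type run as analyte at 5, 50 and 500 nM, 700 s association then 1200 s dissociation, buffer-only reference subtracted, global 1:1 fit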
[3] = molecular target: human CD33 extracellular region F21I (human, UniProt P20138 22-259); test: BLI Octet, IgG captured on AHC, CD33 analyte;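 note: CD33 variants and wild type run as analyte at 5, 50 and 500 nM, 700 s association then 1200 s dissociation, buffer-only reference subtracted, global 1:1 fit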

human CD33 L148A, sequence (P20138 18-364 L148A limits assumed): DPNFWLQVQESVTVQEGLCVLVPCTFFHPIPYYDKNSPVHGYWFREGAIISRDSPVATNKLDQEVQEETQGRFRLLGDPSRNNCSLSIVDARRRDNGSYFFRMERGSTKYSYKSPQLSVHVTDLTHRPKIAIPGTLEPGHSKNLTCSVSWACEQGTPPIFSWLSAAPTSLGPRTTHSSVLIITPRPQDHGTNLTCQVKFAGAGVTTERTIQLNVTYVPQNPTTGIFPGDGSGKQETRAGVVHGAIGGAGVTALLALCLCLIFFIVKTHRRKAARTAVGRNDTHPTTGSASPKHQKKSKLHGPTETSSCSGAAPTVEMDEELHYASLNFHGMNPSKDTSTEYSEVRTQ
human CD33 Y129A, sequence (P20138 18-364 Y129A limits assumed): as the sequence (P20138 18-364 L148A limits assumed) above, with Y112A, A131L counted along it
human CD33 H137A, sequence (P20138 18-364 H137A limits assumed): as the sequence (P20138 18-364 L148A limits assumed) above, with H120A, A131L counted along it
human CD33 D107A, sequence (P20138 18-364 D107A limits assumed): as the sequence (P20138 18-364 L148A limits assumed) above, with D90A, A131L counted along it
human CD33 N100A, sequence (P20138 18-364 N100A limits assumed): as the sequence (P20138 18-364 L148A limits assumed) above, with N83A, A131L counted along it
human CD33 T162A, sequence (P20138 18-364 T162A limits assumed): as the sequence (P20138 18-364 L148A limits assumed) above, with A131L, T145A counted along it
human CD33 T152A, sequence (P20138 18-364 T152A limits assumed): as the sequence (P20138 18-364 L148A limits assumed) above, with A131L, T135A counted along it
human CD33 S164A, sequence (P20138 18-364 S164A limits assumed): as the sequence (P20138 18-364 L148A limits assumed) above, with A131L, S147A counted along it
human CD33 S131A, sequence (P20138 18-364 S131A limits assumed): as the sequence (P20138 18-364 L148A limits assumed) above, with S114A, A131L counted along it
human CD33 R110A, sequence (P20138 18-364 R110A limits assumed): as the sequence (P20138 18-364 L148A limits assumed) above, with R93A, A131L counted along it
human CD33 D112A, sequence (P20138 18-364 D112A limits assumed): as the sequence (P20138 18-364 L148A limits assumed) above, with D95A, A131L counted along it
human CD33 S115A, sequence (P20138 18-364 S115A limits assumed): as the sequence (P20138 18-364 L148A limits assumed) above, with S98A, A131L counted along it
human CD33 F118A, sequence (P20138 18-364 F118A limits assumed): as the sequence (P20138 18-364 L148A limits assumed) above, with F101A, A131L counted along it
human CD33 D95A, sequence (P20138 18-364 D95A limits assumed): as the sequence (P20138 18-364 L148A limits assumed) above, with D78A, A131L counted along it

Binder | Mean % WT Binding (human CD33 E121A) [% WT binding] | Mean % WT Binding (human CD33 G156A) [% WT binding] | Mean % WT Binding (human CD33 P145A) [% WT binding] | Mean % WT Binding (human CD33 R109A) [% WT binding] | Mean % WT Binding (human CD33 K146A) [% WT binding] | Mean % WT Binding (human CD33 D95A) [% WT binding] | Mean % WT Binding (human CD33 W167A) [% WT binding] | Mean % WT Binding (human CD33 T152A) [% WT binding] | Mean % WT Binding (human CD33 I147A) [% WT binding] | Mean % WT Binding (human CD33 C101A) [% WT binding] | Mean % WT Binding (human CD33 K159A) [% WT binding] | Mean % WT Binding (human CD33 L141A) [% WT binding] | Mean % WT Binding (human CD33 S158A) [% WT binding] | Mean % WT Binding (human CD33 T139A) [% WT binding] | Mean % WT Binding (human CD33 N100A) [% WT binding] | Mean % WT Binding (human CD33 S164A) [% WT binding] | Mean % WT Binding (human CD33 L148A) [% WT binding] | Mean % WT Binding (human CD33 L93A) [% WT binding] | Mean % WT Binding (human CD33 Y129A) [% WT binding] | Mean % WT Binding (human CD33 H137A) [% WT binding] | further results
Refmab #1 (antibody, V domains shown, The alanine scan used IgG or Fab; also called hP67.6) VH: EVQLVQSGAEVKKPGSSVKVSCKASGYTITDSNIHWVRQAPGQSLEWIGYIYPYNGGTDYNQKFKNRATLTVDNPTNTAYMELSSLRSEDTAFYYCVNGNPWLAYWGQGTLVTVSS VL: DIQLTQSPSTLSASVGDRVTITCRASESLDNYGIRFLTWFQQKPGKAPKLLMYAASNQGSGVPSRFSGSGSGTEFTLTISSLQPDDFATYYCQQTKEVPWSFGQGTKVEVK | 87.7 | 83.4 | 89.3 | 101 | 78.5 | 80.5 | 89.4 | 86.3 | 71.6 | 1.1 | 119 | 103 | 87.1 | 89.9 | 94.8 | 101 | 83.1 | 88.6 | 53.2 | 83.8 | Mean % WT Binding (human CD33 D112A): 51.8 % WT binding; Mean % WT Binding (human CD33 R122A): 107 % WT binding; Mean % WT Binding (human CD33 S131A): 85.9 % WT binding; Mean % WT Binding (human CD33 S115A): 86.9 % WT binding; Mean % WT Binding (human CD33 R144A): 110 % WT binding; Mean % WT Binding (human CD33 T162A): 86.9 % WT binding; Mean % WT Binding (human CD33 N160A): 82.3 % WT binding; Mean % WT Binding (human CD33 S135A): 98.6 % WT binding; Mean % WT Binding (human CD33 R110A): 94.9 % WT binding; Mean % WT Binding (human CD33 F118A): 0.1 % WT binding; Mean % WT Binding (human CD33 H157A): 86.6 % WT binding; Mean % WT Binding (human CD33 V165A): 91.6 % WT binding; Mean % WT Binding (human CD33 D107A): 87.7 % WT binding
Refmab #1 (antibody, human IgG1, V domains shown, also called hP67.6; Absolute Antibody Cat. No. Ab00283-10.0) VH: EVQLVQSGAEVKKPGSSVKVSCKASGYTITDSNIHWVRQAPGQSLEWIGYIYPYNGGTDYNQKFKNRATLTVDNPTNTAYMELSSLRSEDTAFYYCVNGNPWLAYWGQGTLVTVSS VL: DIQLTQSPSTLSASVGDRVTITCRASESLDNYGIRFLTWFQQKPGKAPKLLMYAASNQGSGVPSRFSGSGSGTEFTLTISSLQPDDFATYYCQQTKEVPWSFGQGTKVEVK |  |  |  |  |  |  |  |  |  |  |  |  |  |  |  |  |  |  |  |  | % WT binding [1]: 3.46%; % WT binding [2]: 45.9%; % WT binding [3]: 0%
Refmab #2 (antibody, V domains shown, The alanine scan used IgG or Fab) VH: QVQLVQSGAEVKKPGSSVKVSCKASGGTFSDYAISWVRQAPGQGLEWMGRIIPILGVADYAQKFQGRVTITADKSTRTAYMELSSLRSEDTAVYYCARNWADAFDIWGQGTMVTVSS VL: DIQLTQSPSSLSASVGDRVTITCRASQGISSVLAWYQQKPGKAPKLLIYDASSLESGVPSRFSGSGSGTDFTLTISSLQPEDFATYYCQQFDSSITFGQGTKLEIK | 109 | 99.4 | 105 | 104 | 115 | 110 | 109 | 117 | 92.2 | 0.6 | 134 | 113 | 111 | 123 | 97 | 117 | 119 | 103 | 137 | 120 | Mean % WT Binding (human CD33 D112A): 58.7 % WT binding; Mean % WT Binding (human CD33 R122A): 3.6 % WT binding; Mean % WT Binding (human CD33 S131A): 123 % WT binding; Mean % WT Binding (human CD33 S115A): 93.2 % WT binding; Mean % WT Binding (human CD33 R144A): 112 % WT binding; Mean % WT Binding (human CD33 T162A): 102 % WT binding; Mean % WT Binding (human CD33 N160A): 107 % WT binding; Mean % WT Binding (human CD33 S135A): 120 % WT binding; Mean % WT Binding (human CD33 R110A): 109 % WT binding; Mean % WT Binding (human CD33 F118A): 0.6 % WT binding; Mean % WT Binding (human CD33 H157A): 115 % WT binding; Mean % WT Binding (human CD33 V165A): 124 % WT binding; Mean % WT Binding (human CD33 D107A): 109 % WT binding
